# Like-named read-outs stand apart in the source and are kept apart here.
# B1: 4H2883-AA (peptide)
# chain: DKIAALKAKIAALKAEIAALEAENAALEG
# B2: N5-AA (peptide)
# chain: DEIAALEAKIAALKAKNAALKAEIAALEG
# B3: O13 (peptide)
# chain: KNAALKAKIAALKYKNAALKAEIAALEG
# Assays:
# 4H3655-AA = target: T1, 4H3655-AA; assay: two-hybrid library CCmax; settings: mean of both orientations;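 also: natural log of median RNA to DNA barcode read ratio; higher means stronger binding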
# T1 chain: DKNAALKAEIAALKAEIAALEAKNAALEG
# 4H2949-AA = target: T2, 4H2949-AA; assay: two-hybrid library CCmax; settings: mean of both orientations;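 also: natural log of median RNA to DNA barcode read ratio; higher means stronger binding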
# T2 chain: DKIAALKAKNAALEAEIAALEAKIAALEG
# 4H317-AA = target: T3, 4H317-AA; assay: two-hybrid library CCmax; settings: mean of both orientations;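 also: natural log of median RNA to DNA barcode read ratio; higher means stronger binding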
# T3 chain: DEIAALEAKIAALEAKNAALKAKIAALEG
# 4H906-AA = target: T4, 4H906-AA; assay: two-hybrid library CCmax; settings: mean of both orientations;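 also: natural log of median RNA to DNA barcode read ratio; higher means stronger binding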
# T4 chain: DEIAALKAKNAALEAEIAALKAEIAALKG
# 4H342-AA = target: T5, 4H342-AA; assay: two-hybrid library CCmax; settings: mean of both orientations;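 also: natural log of median RNA to DNA barcode read ratio; higher means stronger binding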
# T5 chain: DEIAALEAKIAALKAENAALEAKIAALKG
# 4H3112-AA = target: T6, 4H3112-AA; assay: two-hybrid library CCmax; settings: mean of both orientations;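 also: natural log of median RNA to DNA barcode read ratio; higher means stronger binding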
# T6 chain: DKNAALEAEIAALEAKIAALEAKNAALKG
# 4H993-AA = target: T7, 4H993-AA; assay: two-hybrid library CCmax; settings: mean of both orientations
# T7 chain: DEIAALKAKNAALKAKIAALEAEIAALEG
# 4H794-AA = target: T8, 4H794-AA; assay: two-hybrid library CCmax; settings: mean of both orientations
# T8 chain: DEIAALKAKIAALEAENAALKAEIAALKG
# 4H566-AA = target: T9, 4H566-AA; assay: two-hybrid library CCmax; settings: mean of both orientations
# T9 chain: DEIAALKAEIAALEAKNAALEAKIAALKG
# 4H2883-AA = target: T10, 4H2883-AA; assay: two-hybrid library CCmax
# T10 chain: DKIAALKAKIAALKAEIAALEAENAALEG
# 4H678-AA = target: T11, 4H678-AA; assay: two-hybrid library CCmax; settings: mean of both orientations
# T11 chain: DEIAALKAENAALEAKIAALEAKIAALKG
# 4H48-AA = target: T12, 4H48-AA; assay: two-hybrid library CCmax; settings: mean of both orientations
# T12 chain: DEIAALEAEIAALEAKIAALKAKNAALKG
# 4H429-AA = target: T13, 4H429-AA; assay: two-hybrid library CCmax; settings: mean of both orientations
# T13 chain: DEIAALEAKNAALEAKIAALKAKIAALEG
# 4H3343-AA = target: T14, 4H3343-AA; assay: two-hybrid library CCmax; settings: mean of both orientations
# T14 chain: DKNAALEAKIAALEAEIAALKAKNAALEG
# 4H881-AA = target: T15, 4H881-AA; assay: two-hybrid library CCmax; settings: mean of both orientations
# T15 chain: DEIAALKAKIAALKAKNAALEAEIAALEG
# 4H3427-AA = target: T16, 4H3427-AA; assay: two-hybrid library CCmax; settings: mean of both orientations
# T16 chain: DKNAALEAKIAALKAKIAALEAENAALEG
# 4H717-AA = target: T17, 4H717-AA; assay: two-hybrid library CCmax; settings: mean of both orientations
# T17 chain: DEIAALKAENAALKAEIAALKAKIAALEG
# N6-AA = target: T18, N6-AA; assay: two-hybrid library CCmax; settings: mean of both orientations
# T18 chain: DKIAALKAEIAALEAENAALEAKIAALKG
# 4H605-AA = target: T19, 4H605-AA; assay: two-hybrid library CCmax; settings: mean of both orientations
# T19 chain: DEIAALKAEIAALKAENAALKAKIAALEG
# 4H3627-AA = target: T20, 4H3627-AA; assay: two-hybrid library CCmax; settings: mean of both orientations
# T20 chain: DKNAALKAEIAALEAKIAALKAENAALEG
# 4H2944-AA = target: T21, 4H2944-AA; assay: two-hybrid library CCmax; settings: mean of both orientations
# T21 chain: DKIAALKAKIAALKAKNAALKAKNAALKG
# 4H3844-AA = target: T22, 4H3844-AA; assay: two-hybrid library CCmax; settings: mean of both orientations
# T22 chain: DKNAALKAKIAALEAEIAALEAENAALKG
# 4H454-AA = target: T23, 4H454-AA; assay: two-hybrid library CCmax; settings: mean of both orientations
# T23 chain: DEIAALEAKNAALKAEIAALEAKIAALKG
# N5-AA = target: T24, N5-AA; assay: two-hybrid library CCmax
# T24 chain: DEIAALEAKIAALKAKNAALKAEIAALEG
# 4H3606-AA = target: T25, 4H3606-AA; assay: two-hybrid library CCmax; settings: mean of both orientations
# T25 chain: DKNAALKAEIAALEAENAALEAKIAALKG
# O15 = target: T26, O15; assay: two-hybrid library CC0; settings: mean of both orientations
# T26 chain: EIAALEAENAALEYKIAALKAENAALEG
# O7 = target: T27, O7; assay: two-hybrid library CC0; settings: mean of both orientations
# T27 chain: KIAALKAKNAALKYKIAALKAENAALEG
# O3 = target: T28, O3; assay: two-hybrid library CC0; settings: mean of both orientations
# T28 chain: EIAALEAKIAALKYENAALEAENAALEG
# O16 = target: T29, O16; assay: two-hybrid library CC0; settings: mean of both orientations
# T29 chain: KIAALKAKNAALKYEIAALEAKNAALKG
# O6 = target: T30, O6; assay: two-hybrid library CC0; settings: mean of both orientations
# T30 chain: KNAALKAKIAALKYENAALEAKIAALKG
# O4 = target: T31, O4; assay: two-hybrid library CC0; settings: mean of both orientations
# T31 chain: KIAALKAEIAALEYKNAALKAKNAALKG
# O8 = target: T32, O8; assay: two-hybrid library CC0; settings: mean of both orientations
# T32 chain: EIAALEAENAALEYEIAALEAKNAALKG
# O14 = target: T33, O14; assay: two-hybrid library CC0; settings: mean of both orientations
# T33 chain: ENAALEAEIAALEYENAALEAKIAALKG
# O5 = target: T34, O5; assay: two-hybrid library CC0; settings: mean of both orientations
# T34 chain: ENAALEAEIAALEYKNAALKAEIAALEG
# O9 = target: T35, O9; assay: two-hybrid library CC0; settings: mean of both orientations
# T35 chain: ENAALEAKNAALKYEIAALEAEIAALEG
# O2 = target: T36, O2; assay: two-hybrid library CC0; settings: mean of both orientations
# T36 chain: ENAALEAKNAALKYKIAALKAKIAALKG
# O13 = target: T37, O13; assay: two-hybrid library CC0; settings: mean of both orientations
# T37 chain: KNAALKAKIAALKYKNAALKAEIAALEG
binder,measurement,setting,value
B1,interaction score,4H3655-AA,0.159
same,interaction score,4H2949-AA,0.237
same,interaction score,4H317-AA,-0.269
same,interaction score,4H906-AA,-1.52
same,interaction score,4H342-AA,-0.29
same,interaction score,4H3112-AA,1.39
same,interaction score,4H993-AA,-0.35
same,interaction score,4H794-AA,-1.54
same,interaction score,4H566-AA,0.102
same,interaction score,4H2883-AA,1.92
same,interaction score,4H678-AA,0.155
same,interaction score,4H48-AA,2.1
same,interaction score,4H429-AA,-0.571
same,interaction score,4H3343-AA,-0.771
same,interaction score,4H881-AA,-0.297
same,interaction score,4H3427-AA,-0.335
same,interaction score,4H717-AA,-1.74
same,interaction score,N6-AA,1.03
same,interaction score,4H605-AA,-1.31
same,interaction score,4H3627-AA,-0.102
same,interaction score,4H2944-AA,0.034
same,interaction score,4H3844-AA,0.741
same,interaction score,4H454-AA,-0.344
same,interaction score,N5-AA; mean of both orientations,0.696
same,interaction score,4H3606-AA,0.716
B2,interaction score,N6-AA,2.28
same,interaction score,N5-AA,-0.624
B3,interaction score,O15,-0.499
same,interaction score,O7,-2.81
same,interaction score,O3,-2.81
same,interaction score,O16,-2.87
same,interaction score,O6,-1.12
same,interaction score,O4,-2.72
same,interaction score,O8,-1.5
same,interaction score,O14,1.21
same,interaction score,O5,-2.45
same,interaction score,O9,-2.75
same,interaction score,O2,-2.82
same,interaction score,O13,-2.86

# From article PMC10397247
